Experiment [1] concerns the target T1, Fusarium oxysporum lipase (FoL) variant [change] (Fusarium oxysporum).
T1 chain: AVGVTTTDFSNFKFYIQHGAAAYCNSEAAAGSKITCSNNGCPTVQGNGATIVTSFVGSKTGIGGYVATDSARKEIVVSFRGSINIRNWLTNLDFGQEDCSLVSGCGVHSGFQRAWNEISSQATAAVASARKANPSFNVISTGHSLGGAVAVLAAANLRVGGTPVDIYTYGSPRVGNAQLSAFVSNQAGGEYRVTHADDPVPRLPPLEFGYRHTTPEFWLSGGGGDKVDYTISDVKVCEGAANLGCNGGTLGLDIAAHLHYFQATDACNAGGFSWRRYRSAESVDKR
The experiment in a line: cell-based or functional assay.

The target in experiment [2] is T2, Fusarium oxysporum lipase (FoL), wild type (Fusarium oxysporum).
T2 chain: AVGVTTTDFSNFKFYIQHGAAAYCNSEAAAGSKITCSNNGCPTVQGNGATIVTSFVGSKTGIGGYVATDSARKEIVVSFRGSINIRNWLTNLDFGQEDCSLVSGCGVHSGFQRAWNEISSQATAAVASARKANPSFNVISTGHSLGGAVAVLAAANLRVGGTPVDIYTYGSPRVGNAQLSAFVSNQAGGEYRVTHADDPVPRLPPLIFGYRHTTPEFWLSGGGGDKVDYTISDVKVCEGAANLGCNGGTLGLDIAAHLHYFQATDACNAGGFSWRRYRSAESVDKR
In words: cell-based or functional assay.

Take ATMTDAELEKKLNSYVQMDKEYVKNNQARS (modifications not checked) [Peptide P0 (wildtype FoL C-terminal peptide)]: the IC50 (half maximal inhibitory concentration; p-NP butyrate hydrolysis) (peptide/lipase ratio) in experiment [1] turned out to be 287; in experiment [2], 913.
